Source: patent US20150274799A1, “GLP-1 ANALOGUE, ITS PREPARATION METHODS AND USE THEREOF” (TIANJIN INSTITUTE OF PHARMACEUTICAL RESEARCH, priority 2011, published 2015)
Ends that are not written are not given here.

What was measured:
[1] = in vivo; cited from earlier work
[2] = cited from earlier work

Substance	half-life in human serum [h]	half-life of GLP-1 administered alone [1] [min]	serum half-life [2] [min]
^7HAEGT FTSDVSSYLEGQAAKEFICWLCKGRG^37GG C GGGGG GGGGGGGGGG (HAEGTFTSDVSSYLEGQAAKEFICWLCKGRGGGCGGGGGGGGGGGGGGG; disulfide (positions not given here); also: contains disulfide bonds, places not given here (three Cys)) [SEQ ID NO 59]	> 24		
^7HAEGT FTSDVSSYLEGQAAKEFICWLCKGRG^37GG C GGGGG GGGGG (HAEGTFTSDVSSYLEGQAAKEFICWLCKGRGGGCGGGGGGGGGG; disulfide (positions not given here); also: contains disulfide bonds, places not given here (three Cys)) [SEQ ID NO 58]	> 24		
HAEGTFTSDVSSYLEGQAAKEFIAWLVKGRG [GLP-1]		3 to 5	3 to 5
